Laboratory results as given in article PMC2700399 (The Journal of Cell Biology, 2009).

T1: TAP-tagged Ndc1 (S. cerevisiae, UniProt P32500 1-655)
T1 sequence (looked up): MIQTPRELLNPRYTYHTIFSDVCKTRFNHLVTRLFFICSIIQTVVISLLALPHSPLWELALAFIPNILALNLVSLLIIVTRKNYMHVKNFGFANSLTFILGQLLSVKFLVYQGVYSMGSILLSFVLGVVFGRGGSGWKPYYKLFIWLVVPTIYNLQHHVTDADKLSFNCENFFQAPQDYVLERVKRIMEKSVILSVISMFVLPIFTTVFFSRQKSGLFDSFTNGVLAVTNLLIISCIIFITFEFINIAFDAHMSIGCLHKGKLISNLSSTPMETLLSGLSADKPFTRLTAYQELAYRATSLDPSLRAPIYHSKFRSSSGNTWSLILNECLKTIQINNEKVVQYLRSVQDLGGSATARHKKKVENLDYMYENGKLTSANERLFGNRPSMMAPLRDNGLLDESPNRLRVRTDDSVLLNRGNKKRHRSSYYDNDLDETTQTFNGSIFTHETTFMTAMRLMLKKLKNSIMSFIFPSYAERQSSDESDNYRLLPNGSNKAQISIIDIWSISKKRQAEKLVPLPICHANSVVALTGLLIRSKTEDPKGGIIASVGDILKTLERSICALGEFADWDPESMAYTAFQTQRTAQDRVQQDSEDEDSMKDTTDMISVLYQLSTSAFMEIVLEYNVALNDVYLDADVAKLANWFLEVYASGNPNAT

B1: GST-Nup59 (natural protein, S. cerevisiae, UniProt Q05166 1-528, looked up)
chain: MFGIRSGNNNGGFTNLTSQAPQTTQMFQSQSQLQPQPQPQPQQQQQHLQFNGSSDASSLRFGNSLSNTVNANNYSSNIGNNSINNNNIKNGTNNISQHGQGNNPSWVNNPKKRFTPHTVIRRKTTKQNSSSDINQNDDSSSMNATMRNFSKQNQDSKHNERNKSAANNDINSLLSNFNDIPPSVTLQDWQREDEFGSIPSLTTQFVTDKYTAKKTNRSAYDSKNTPNVFDKDSYVRIANIEQNHLDNNYNTAETNNKVHETSSKSSSLSAIIVFGYPESISNELIEHFSHFGHIMEDFQVLRLGRGINPNTFRIFHNHDTGCDENDSTVNKSITLKGRNNESNNKKYPIFTGESWVKLTYNSPSSALRALQENGTIFRGSLIGCIPYSKNAVEQLAGCKIDNVDDIGEFNVSMYQNSSTSSTSNTPSPPNVIITDGTLLREDDNTPAGHAGNPTNISSPIVANSPNKRLDVIDGKLPFMQNAGPNSNIPNLLRNLESKMRQQEAKYRNNEPAGFTHKLSNWLFGWNDL
B2: GST-Nup53(376-475) (domain or fragment, S. cerevisiae, UniProt Q03790 376-475, looked up)
chain: KDLSNYRKTEGIFEKAKAKAVTSKVRNAEFKVSKNSTSFKNPRRLEIKDGRSLFLRNRGKIHSGVLSSIESDLKKREQASKSKKSWLNRLNNWLFGWNDL
B3: 6xHis-MBP-Nup53 (natural protein, S. cerevisiae, UniProt Q03790 1-475, looked up)
chain: MADLQKQENSSRFTNVSVIAPESQGQHEQQKQQEQLEQQKQPTGLLKGLNGFPSAPQPLFMEDPPSTVSGELNDNPAWFNNPRKRAIPNSIIKRSNGQSLSPVRSDSADVPAFSNSNGFNNVTFGSKKDPRILKNVSPNDNNSANNNAHSSDLGTVVFDSNEAPPKTSLADWQKEDGIFSSKTDNIEDPNLSSNITFDGKPTATPSPFRPLEKTSRILNFFDKNTKTTPNTASSEASAGSKEGASTNWDDHAIIIFGYPETIANSIILHFANFGEILEDFRVIKDFKKLNSKNMSKSPSLTAQKYPIYTGDGWVKLTYKSELSKSRALQENGIIMNGTLIGCVSYSPAALKQLASLKKSEEIINNKTSSQTSLSSKDLSNYRKTEGIFEKAKAKAVTSKVRNAEFKVSKNSTSFKNPRRLEIKDGRSLFLRNRGKIHSGVLSSIESDLKKREQASKSKKSWLNRLNNWLFGWNDL
B4: 6xHis-MBP-Nup59 (natural protein, S. cerevisiae, UniProt Q05166 1-528, looked up)
chain: B1 chain

Key:
TAP-tagged Ndc1 = target: T1, TAP-tagged Ndc1; test: pull-down
TAP-Nup170 = TAP-Nup170 (S. cerevisiae, UniProt P38181 1-1502); test: pull-down
TAP-Nup170, sequence (P38181 whole entry): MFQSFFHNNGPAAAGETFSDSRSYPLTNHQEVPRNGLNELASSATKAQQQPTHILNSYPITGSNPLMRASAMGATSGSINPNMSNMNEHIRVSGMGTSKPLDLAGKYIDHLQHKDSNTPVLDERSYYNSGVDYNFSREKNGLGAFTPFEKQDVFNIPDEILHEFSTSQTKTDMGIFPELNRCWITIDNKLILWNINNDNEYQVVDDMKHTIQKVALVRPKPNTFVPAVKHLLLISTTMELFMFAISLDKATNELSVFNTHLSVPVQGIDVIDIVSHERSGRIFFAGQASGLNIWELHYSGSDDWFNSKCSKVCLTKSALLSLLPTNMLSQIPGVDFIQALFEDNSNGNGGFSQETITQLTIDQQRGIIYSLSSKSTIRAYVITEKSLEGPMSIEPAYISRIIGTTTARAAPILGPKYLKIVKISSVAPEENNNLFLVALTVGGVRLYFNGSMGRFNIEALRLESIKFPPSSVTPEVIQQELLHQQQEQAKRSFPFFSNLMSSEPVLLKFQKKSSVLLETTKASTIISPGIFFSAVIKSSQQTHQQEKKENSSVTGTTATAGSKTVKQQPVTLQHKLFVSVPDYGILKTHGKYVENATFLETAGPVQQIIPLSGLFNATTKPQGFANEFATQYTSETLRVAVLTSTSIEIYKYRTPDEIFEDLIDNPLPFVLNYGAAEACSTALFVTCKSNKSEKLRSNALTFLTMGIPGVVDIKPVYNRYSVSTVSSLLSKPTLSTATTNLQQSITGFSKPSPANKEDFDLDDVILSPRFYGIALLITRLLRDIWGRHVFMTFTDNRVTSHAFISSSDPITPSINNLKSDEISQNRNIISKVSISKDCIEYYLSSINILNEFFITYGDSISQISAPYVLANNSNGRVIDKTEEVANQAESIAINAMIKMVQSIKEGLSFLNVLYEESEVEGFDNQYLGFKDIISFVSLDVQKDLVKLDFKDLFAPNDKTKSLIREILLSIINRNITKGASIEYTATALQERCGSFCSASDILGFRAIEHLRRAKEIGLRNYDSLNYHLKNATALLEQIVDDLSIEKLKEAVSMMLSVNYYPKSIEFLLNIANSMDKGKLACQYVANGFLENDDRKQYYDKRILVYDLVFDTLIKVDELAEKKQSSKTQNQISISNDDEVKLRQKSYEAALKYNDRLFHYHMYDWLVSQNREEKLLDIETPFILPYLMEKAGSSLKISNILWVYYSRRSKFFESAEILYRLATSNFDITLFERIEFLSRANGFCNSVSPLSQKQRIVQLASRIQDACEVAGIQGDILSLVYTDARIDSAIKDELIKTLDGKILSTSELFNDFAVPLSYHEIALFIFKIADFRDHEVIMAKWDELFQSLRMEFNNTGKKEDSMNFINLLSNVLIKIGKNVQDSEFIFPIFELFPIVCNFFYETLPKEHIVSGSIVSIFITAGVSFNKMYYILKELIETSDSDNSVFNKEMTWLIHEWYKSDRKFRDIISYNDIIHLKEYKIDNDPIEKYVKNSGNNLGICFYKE

Binder | binding result (TAP-tagged Ndc1) | binding result (TAP-Nup170)
B1 | binds | 
B2 | binds | 
B3 |  | binds
B4 |  | binds
